# Reference: the supplement of paper PMC9112550, “Optimization of the antimicrobial peptide Bac7 by deep mutational scanning” (BMC Biology, 2022)
# System: Escherichia coli TOP10
# Assay: shrunken log2 fold change of peptide-encoding DNA abundance (4.5 h post-induction vs induction); higher = less antimicrobial activity (less host growth inhibition)
# Details: time post-induction: 4.5 h; library: site-saturation at positions 5, 18, 19, 20
# 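Note: peptides expressed intracellularly from a pBAD plasmid library in pooled LB shake-flask culture, induced with 0.3% L-arabinose, DNA abundance read by NGS, three biological replicates, DESeq2 with apeglm shrinkage.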
row,Sequence,shrunken log2 fold change
1,RRIRCRPPRLPRPRPRPLGWPRP,0.506
2,RRIRDRPPRLPRPRPRPFRRPRP,0.0456
3,RRIRLRPPRLPRPRPRPDGCPRP,-0.0283
4,RRIRHRPPRLPRPRPRPIIHPRP,0.142
5,RRIRRRPPRLPRPRPRPSQVPRP,0.0533
6,RRIRKRPPRLPRPRPRPYTTPRP,-0.0326
7,RRIRTRPPRLPRPRPRPGDTPRP,-0.0833
8,RRIRLRPPRLPRPRPRPARSPRP,0.343
9,RRIRNRPPRLPRPRPRPTHSPRP,-0.232
10,RRIRHRPPRLPRPRPRPQQHPRP,-0.384
11,RRIRPRPPRLPRPRPRPYKVPRP,-0.338
12,RRIRRRPPRLPRPRPRPEELPRP,0.338
13,RRIRGRPPRLPRPRPRPDRNPRP,0.0753
14,RRIRMRPPRLPRPRPRPEDIPRP,-0.0245
15,RRIRERPPRLPRPRPRPNREPRP,-0.0209
16,RRIRARPPRLPRPRPRPIWKPRP,-0.0642
17,RRIRRRPPRLPRPRPRPPYYPRP,0.108
18,RRIRCRPPRLPRPRPRPWGAPRP,0.0457
19,RRIRHRPPRLPRPRPRPCMSPRP,0.12
20,RRIRNRPPRLPRPRPRPHTMPRP,-0.298
21,RRIRGRPPRLPRPRPRPSQSPRP,0.0755
22,RRIRVRPPRLPRPRPRPDHTPRP,-0.428

row,Sequence,shrunken log2 fold change
1,RRIRRRPPRLPRPRPRPTKPPRP,0.541
2,RRIRHRPPRLPRPRPRPLRIPRP,0.156
3,RRIRKRPPRLPRPRPRPYPSPRP,0.0794
4,RRIRRRPPRLPRPRPRPFAFPRP,0.0757
5,RRIRTRPPRLPRPRPRPDHSPRP,-0.0596
6,RRIRCRPPRLPRPRPRPTGQPRP,0.123
7,RRIRNRPPRLPRPRPRPICEPRP,0.0602
8,RRIRDRPPRLPRPRPRPEEKPRP,0.766
9,RRIRNRPPRLPRPRPRPRWVPRP,-0.172
10,RRIRRRPPRLPRPRPRPPANPRP,0.731
11,RRIRARPPRLPRPRPRPPEYPRP,0.386
12,RRIRLRPPRLPRPRPRPAAEPRP,0.432
13,RRIRPRPPRLPRPRPRPKIYPRP,-0.000172
14,RRIRQRPPRLPRPRPRPLSRPRP,-0.0591
15,RRIRPRPPRLPRPRPRPDLPPRP,0.315
16,RRIRDRPPRLPRPRPRPFVKPRP,-0.1
17,RRIRCRPPRLPRPRPRPAQIPRP,0.00931
18,RRIRTRPPRLPRPRPRPAIDPRP,-0.206
19,RRIRERPPRLPRPRPRPVYAPRP,-0.288
20,RRIRVRPPRLPRPRPRPDDLPRP,-0.0407
21,RRIRGRPPRLPRPRPRPVHYPRP,0.109
22,RRIRRRPPRLPRPRPRPRGFPRP,0.131

row,Sequence,shrunken log2 fold change
1,RRIRRRPPRLPRPRPRPEPAPRP,0.812
2,RRIRLRPPRLPRPRPRPNGLPRP,-0.0171
3,RRIRIRPPRLPRPRPRPGCWPRP,0.312
4,RRIRWRPPRLPRPRPRPFAVPRP,0.157
5,RRIRRRPPRLPRPRPRPLGTPRP,0.547
6,RRIRKRPPRLPRPRPRPCNPPRP,-0.00652
7,RRIRARPPRLPRPRPRPLVPPRP,0.125
8,RRIRQRPPRLPRPRPRPCTTPRP,-0.104
9,RRIRYRPPRLPRPRPRPKPIPRP,0.0874
10,RRIRVRPPRLPRPRPRPSCRPRP,-0.0227
11,RRIRGRPPRLPRPRPRPGHGPRP,0.323
12,RRIRERPPRLPRPRPRPTYRPRP,-0.0372
13,RRIRWRPPRLPRPRPRPWHNPRP,-0.203
14,RRIRWRPPRLPRPRPRPVHHPRP,-0.0507
15,RRIRVRPPRLPRPRPRPMHDPRP,-0.134
16,RRIRDRPPRLPRPRPRPESHPRP,0.0331
17,RRIRIRPPRLPRPRPRPNASPRP,0.109
18,RRIRPRPPRLPRPRPRPHNRPRP,-0.0456
19,RRIRFRPPRLPRPRPRPEATPRP,0.565
20,RRIRVRPPRLPRPRPRPPKFPRP,0.133
21,RRIRCRPPRLPRPRPRPMMEPRP,-0.105
22,RRIRRRPPRLPRPRPRPFRKPRP,-0.00961

row,Sequence,shrunken log2 fold change
1,RRIRGRPPRLPRPRPRPVKKPRP,0.949
2,RRIRYRPPRLPRPRPRPSNTPRP,-1.06
3,RRIRVRPPRLPRPRPRPMDEPRP,0.422
4,RRIRKRPPRLPRPRPRPNRLPRP,0.497
5,RRIRARPPRLPRPRPRPHIRPRP,-0.0962
6,RRIRCRPPRLPRPRPRPLPIPRP,-0.0776
7,RRIRYRPPRLPRPRPRPLCWPRP,-0.264
8,RRIRKRPPRLPRPRPRPLILPRP,-0.265
9,RRIRHRPPRLPRPRPRPYCNPRP,-0.456
10,RRIRARPPRLPRPRPRPNVIPRP,-0.433
11,RRIRQRPPRLPRPRPRPKGCPRP,-0.0208
12,RRIRCRPPRLPRPRPRPKAPPRP,0.337
13,RRIRYRPPRLPRPRPRPFIWPRP,-0.2
14,RRIRCRPPRLPRPRPRPPCKPRP,-0.189
15,RRIRNRPPRLPRPRPRPSLPPRP,-0.378
16,RRIRWRPPRLPRPRPRPISVPRP,-0.186
17,RRIRIRPPRLPRPRPRPFMEPRP,-0.354
18,RRIRLRPPRLPRPRPRPSNQPRP,-1.04
19,RRIRKRPPRLPRPRPRPRFFPRP,0.282
20,RRIRRRPPRLPRPRPRPTRGPRP,0.661
21,RRIRYRPPRLPRPRPRPSEGPRP,0.0169
22,RRIRTRPPRLPRPRPRPAFMPRP,-0.0227

row,Sequence,shrunken log2 fold change
1,RRIRTRPPRLPRPRPRPMTMPRP,-0.223
2,RRIRERPPRLPRPRPRPYWHPRP,-0.168
3,RRIRQRPPRLPRPRPRPQNQPRP,-0.17
4,RRIRNRPPRLPRPRPRPKLDPRP,0.00863
5,RRIRYRPPRLPRPRPRPAHYPRP,-0.18
6,RRIRARPPRLPRPRPRPKECPRP,0.0495
7,RRIRCRPPRLPRPRPRPMEDPRP,-0.0146
8,RRIRHRPPRLPRPRPRPPPYPRP,0.00808
9,RRIRFRPPRLPRPRPRPLCHPRP,-0.271
10,RRIRLRPPRLPRPRPRPTAIPRP,-0.17
11,RRIRDRPPRLPRPRPRPRFEPRP,0.0618
12,RRIRIRPPRLPRPRPRPMTCPRP,-0.00783
13,RRIRTRPPRLPRPRPRPMRTPRP,0.276
14,RRIRSRPPRLPRPRPRPGDVPRP,0.204
15,RRIRCRPPRLPRPRPRPYYGPRP,-0.199
16,RRIRNRPPRLPRPRPRPATTPRP,0.272
17,RRIRNRPPRLPRPRPRPAYSPRP,-0.189
18,RRIRARPPRLPRPRPRPIRKPRP,0.0897
19,RRIRKRPPRLPRPRPRPSVKPRP,-0.358
20,RRIRMRPPRLPRPRPRPQMQPRP,0.108
21,RRIRSRPPRLPRPRPRPDFPPRP,0.0768
